The data set relates to MS2 coat protein. Briefly: apparent KD of MS2 coat protein; designed switch direction (-1 OFF switch, 1 ON switch): -1; higher = weaker reporter binding. The essentials:
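The buffer was Tris-HCl pH 7.5 with KCl, MgCl2, BSA, DTT, tRNA and Tween-20. In it, SNAP-549-labelled MS2 coat protein was titrated in doubling steps from 0.7 or 1.5 nM to 3 µM over chip-bound RNA switches transcribed by stalled E. coli RNA polymerase on Illumina chips. Apparent KD is the per-design median over clusters of curve fits to normalised fluorescence.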

[1] abbreviates: input ligand: microRNA oligo, concentration not stated.
Where [2] appears, read: Eterna round: R95, input ligand: microRNA oligo, concentration not stated.

As to “GGUACUCAAAGAGUACCAAUACGAACAUGAGGAUCACCCAUGUAGGAUAUGCUACUCAAAGAGUAGCAGAAGGAUAUGAACCUC [Far Half Aptamer v10] (Eterna round: R96, puzzle: Exclusion NG 3)”, the “apparent KD of MS2 coat protein” value was 407 nM (input ligand: FMN 200 uM), 204 nM under setting [1] and 227 nM (input ligand: none).
For “CUCACGUCAGGAUAUCUACAUUAAAUUGGUAACCAAGCAUGAGAGAAGGGACAUGAGGAUCACCCAUGUAAAAC [Ceisusma] (Eterna round: R97, puzzle: Exclusion 4)”, the “apparent KD of MS2 coat protein” value is 42.4 nM (input ligand: FMN 200 uM) and 48.7 nM (input ligand: none).
For “UGAUCCCAUGUCAGGAUAUAGAGGCGGUAGCCUGGCUAGAAGGGACAUGAGGAUCACCCAUGUCGGUUCUUGCC (puzzle: Brourd's mod of Exclusion 4)”, the “apparent KD of MS2 coat protein” value under setting [2] was 30.6 nM.
Take “UAAAAGGCAGGAUAUGCAGAAAAGGAAACUUUUCAAGAAUGACAUGAGGAUCACCCAUGUAGAAGGGCCUUUUA [Alacar Attempt 3] (Eterna round: R97, puzzle: Exclusion 2)”: the “apparent KD of MS2 coat protein” value runs as follows: (input ligand: FMN 200 uM) 15.5 nM; (input ligand: none) 16.2 nM.
For “GAAUAGCAAGCGAGAUCCCACAUGAGGAUCACCCAUGUGCUCGUCUUAUAAAGUACUGUGACGAAAGUCACGGUACA [Mat - Sensor, turn-off var - Eli Mod - D12] (Eterna round: R97, puzzle: Sensor, turn-off variant 1)” the same measures were 14.6 nM and 17.8 nM.
For “CAAUAACAAGCGAGAUCCUACAUGAGGAUCACCCAUGUGCUCGUCUUAAAAGGUACUGUGACGAAAGUCACGGUACC [Eli 87 + Mat D67 3] (Eterna round: R97, puzzle: Sensor, turn-off variant 1)” the same measures were 16.9 nM and 23 nM.
Take “AGUAACUCAAGAGGAUAUCACAUGAGGAUCACCCAUGUAUAGCGCGCUAUGCUAGUCCUCGUAUUUGAGAAGGUUUGAUAAAUG [JL ViennaUCT Quve mod 2] (Eterna round: R96, puzzle: Exclusion NG 2)”: the “apparent KD of MS2 coat protein” value by setting is: (input ligand: FMN 200 uM) 16.8 nM; under setting [1], 13.1 nM; (input ligand: none) 17.2 nM.
On to “AAUAACAAGUUGAUCCUACACAUGAGGAUCACCCAUGUGCUCGUCUUGUAAAGUACUAUCACGAAAGUGAUAGUACA (Eterna round: R97, puzzle: Sensor, turn-off variant 1)”, for which the “apparent KD of MS2 coat protein” value amounted to 50.2 nM (input ligand: FMN 200 uM) and 66 nM (input ligand: none).
For “UAAACAAGCUAAAGAUCCUACAUGAGGAUCACCCAUGUGCUCGUCUUAUAAGGUACUGUGACGAAAGUCACGGUACC [JL TOV1 3.00] (Eterna round: R97, puzzle: Sensor, turn-off variant 1)”, in that order: 488 nM and 663 nM.
With “UUAAUACAUGUAGGAUAUGCGUGGCGAAGCUAUGCAGAAGGACAUGAGGAUCACCCAUGUCUAUGCGUCCGCGUACGGAUGCAA [JL Eng1 1.21 mod 6] (Eterna round: R96, puzzle: Exclusion NG 1)”, the “apparent KD of MS2 coat protein” value reads like this: (input ligand: FMN 200 uM) 18.4 nM; under setting [1], 9.06 nM; (input ligand: none) 16.4 nM.
On to “AAUACAAGCUAUUGAUCCCACAUGAGGAUCACCCAUGUAGGUGGCGGUGACACCUCCUUUACGAUAGCUCGUCUUAU [Sensor-V1 #54] (Eterna round: R97, puzzle: Sensor, turn-off variant 1)”, for which the “apparent KD of MS2 coat protein” value runs as follows: (input ligand: FMN 200 uM) 141 nM; (input ligand: none) 226 nM.
For the sequence “ACAUGAGGAUCACCCAUGUAAUCAUAAUGGCUGAUGUAGAGUCAGGAUAUGUGUGGCUUACUAUCGCAGAAGGGACAAGACUGG [Deportation 33 - Jieux - Exclusion NG 3] (Eterna round: R96, puzzle: Exclusion NG 3)”, the “apparent KD of MS2 coat protein” value is 26.3 nM (input ligand: FMN 200 uM), 14.2 nM under setting [1] and 25.9 nM (input ligand: none).
For “GUUCUGACAGGAUAUACAUGAGGAUCACCCAUGUGCCCUUAGAGAUGCAAAGCAUCUUGUAGAAGGGUCUGAAC [Omei Ex3 Model Bachelor's Dilema v27] (Eterna round: R97, puzzle: Exclusion 3)”, the “apparent KD of MS2 coat protein” value is, setting by setting: (input ligand: FMN 200 uM) 42.1 nM; (input ligand: none) 37.6 nM.
For “AGCCUAGCAGGAUAUGCCCGGGAUAACAUGAGGAUCACCCAUGUGACUGAUUGAUGUCCUGCAGAAGGGCUAGGGA [JL-EX5-4.01 ViennaUCT mod] (Eterna round: R97, puzzle: Exclusion 5)”, in that order: 154 nM and 25.9 nM.
“UAUACACAUGAGGAUCACCCAUGUGAGGAUAUGUUAAUUUUAAUGAAAAUUAAAAUUAACAGAAGGCACAUAUA [JR_Exclusion1_Sub025] (puzzle: Exclusion 1)”: under setting [2], the “apparent KD of MS2 coat protein” value was found to be 67.2 nM.
Regarding “GCUAGAGCAGGAUAUCUAGAUCCUCACAUGAGGAUCACCCAUGUAGUCGAAAGACUAAGAAGAGAAGGGCUCUAGC [Omei Ex5 E17] (Eterna round: R97, puzzle: Exclusion 5)”, the “apparent KD of MS2 coat protein” value came to 133 nM (input ligand: FMN 200 uM) and 8.81 nM (input ligand: none).
In the case of “AGCUGUGGCCGAGGAUAUACAUGAGGAUCACCCAUGUUACAUAAUUAGGCCGGGUAACCGGCUCCGUAGAAGGCGGUCUCAGCA [Eli eng2 - 004] (Eterna round: R96, puzzle: Exclusion NG 2)”, the “apparent KD of MS2 coat protein” value reads like this: (input ligand: FMN 200 uM) 14.3 nM; under setting [1], 11.7 nM; (input ligand: none) 13.7 nM.
“UUAAUGUGAGGAUAUCAGGUGUGCUAGAGAACUGGUACAUCUGAGAAGGCACAUGAGGAUCACCCAUGUUCUUC [Mat - Exclusion 4 - Mod of JL - D55] (puzzle: Exclusion 4)”: the “apparent KD of MS2 coat protein” value under setting [2] came out at 36.8 nM.
“GCAUUCUGAGGAUAUACAUGAGGAUCACCCAUGUUGAGAAAUAAGAAUAAGUACUUAAGUAGAAGGCAGAGUGC [JR_Ex3_Sub074] (Eterna round: R97, puzzle: Exclusion 3)”: the “apparent KD of MS2 coat protein” value (input ligand: FMN 200 uM) was determined as 61.6 nM and the “apparent KD of MS2 coat protein” value (input ligand: none) was determined as 15.8 nM.
Turning to “AGAGAAUACUCAGGAUAUCUGAAUAGAAAGAGAAGAGAAGGGAGACAUGAGGAUCACCCAUGUGAAGUCUUGAGACUACAUGGU [Prohibition 27 - Jieux - Exclusion NG 1] (Eterna round: R96, puzzle: Exclusion NG 1)”, the “apparent KD of MS2 coat protein” value under setting [1] is 225 nM.
In the case of “UGUUGUCGCGCAGGAUAUGUAUGAGGAUCACCCAUUAAUAAAUUUUAACCACGAGGAUCACCCGUGUAGAAGGGCGCGACAACA [pwkr exNG2 2xF5 1xFMN.17] (Eterna round: R96, puzzle: Exclusion NG 2)”, the “apparent KD of MS2 coat protein” value amounted to 36.6 nM (input ligand: FMN 200 uM), 19.7 nM under setting [1] and 33.1 nM (input ligand: none).
In the case of “CUUUUGUGAGGAUAUCAGUAGUAAAUAAAUAAAAUUACUUCUGAGAAGGCACAUGAGGAUCACCCAUGUUCCUC [salish99_ex3_r3_087] (puzzle: Exclusion 4)”, under setting [2], the “apparent KD of MS2 coat protein” value is 35.7 nM.
On the same count and under the same terms, with “CAUAGUAAUUAGGAUAUCUGCCGGCUGAACCGAGGAGAAGGGAUUACAUGAGGAUCACCCAUGUGGUCCUAAGA [Relegebe] (puzzle: Exclusion 6)” the figure was 14.5 nM.
On to “GGAGAUCGAGGAUAUACAUGAGGAUCACCCAUGUCCGUAGACUGGGAUCGCGGCAGUGGUAGAAGGUGGAAAAU [Eternabot (L2) Solution 67] (Eterna round: R97, puzzle: Exclusion 3)”, for which the “apparent KD of MS2 coat protein” value came out at 112 nM (input ligand: FMN 200 uM) and 160 nM (input ligand: none).
As to “CAGUACUGAGGAUAUACAUGAGGAUCACCCAUGUGUUCCAGCUAGGAAACUAGCAAAAGUAGAAGGCUGUACUG [salish99_ex3_r3_088] (puzzle: Exclusion 3)”, the “apparent KD of MS2 coat protein” value under setting [2] turned out to be 17.9 nM.
For “AAAUGGGCGUAGGAUAUGAGAUGGUCUAGCAGCUCAGAAGGACGCACAUGAGGAUCACCCAUGUGAUCGGACUA [Celebidi] (Eterna round: R96, puzzle: Exclusion 6)”, the “apparent KD of MS2 coat protein” value (input ligand: FMN 200 uM) was 281 nM, the “apparent KD of MS2 coat protein” value under setting [1] amounted to 27.8 nM and the “apparent KD of MS2 coat protein” value (input ligand: none) turned out to be 34.8 nM.
As for “AGAUGGCGAGGAUAUACAUGAGGAUCACCCAUGUGAAGAUAAAUAGUGAGGAAGAAAAGUAGAAGGCGCUGUCA [Mat - Exclusion 3 - Mod of Salish D27] (puzzle: Exclusion 3)”, the “apparent KD of MS2 coat protein” value under setting [2] is 58.6 nM.
In the case of “AGAAGUAUAGGAUAUACGUCUGCGCACAUGAGGAUCACCCAUGUCGUGUUCCGUGGCAGAGUAGAAGGGUACGGAC [EX5 B.11] (Eterna round: R97, puzzle: Exclusion 5)”, the “apparent KD of MS2 coat protein” value (input ligand: FMN 200 uM) was found to be 305 nM and the “apparent KD of MS2 coat protein” value (input ligand: none) came to 219 nM.
For the sequence “GUAUAUGAUGUAGGAUAUACGAGACAUGAGGAUCACCCAUGUGAGGGAAGGAGAAGGAGAAGAGAGUAGAAGGAUAGAGUGUGA [Default title] (Eterna round: R96, puzzle: Exclusion NG 2)”, the “apparent KD of MS2 coat protein” value reads like this: (input ligand: FMN 200 uM) 69.3 nM; under setting [1], 45.7 nM; (input ligand: none) 80.6 nM.
“GUCAUGUUAGGAUAUCAAACAUGUGACUUCGGUCACUGUCCUGAGAAGGAACAUGAGGAUCACCCAUGUUGGAC [Ex4-3: 57] (puzzle: Exclusion 4)”: under setting [2], the “apparent KD of MS2 coat protein” value is 16.2 nM.
In the case of “CAAGAAUCUAUAUAAAGGCACAUGAGGAUCACCCAUGUGGUCCGUAAAAUCAUGCGACAAGCCAUUUGCUCGUCGUG [Eternabot (L2) Solution 30] (Eterna round: R97, puzzle: Sensor, turn-off variant 1)”, the “apparent KD of MS2 coat protein” value came out at 33.2 nM (input ligand: FMN 200 uM) and 37.6 nM (input ligand: none).
For “CGUUGCAGAGGAUAUACAUGAGGAUCACCCAUGUGAAAUUAUAGUGAGGAAAUGAAAAGUAGAAGGCUGUGACA [Mod of Mat 11 - Jieux - Exclusion 3] (Eterna round: R97, puzzle: Exclusion 3)”, in that order: 267 nM and 47.3 nM.
